Test results published in paper PMC3985488.
Where a chain is given by its changes, count along the chain named.

Assays:
Dpo4 Y108W-K329C-CPM = target: T1, Dpo4 Y108W-K329C-CPM (Sulfolobus solfataricus, UniProt Q97W02 1-352, C31S;Y108W;K329C); assay: stopped-flow FRET
T1 sequence: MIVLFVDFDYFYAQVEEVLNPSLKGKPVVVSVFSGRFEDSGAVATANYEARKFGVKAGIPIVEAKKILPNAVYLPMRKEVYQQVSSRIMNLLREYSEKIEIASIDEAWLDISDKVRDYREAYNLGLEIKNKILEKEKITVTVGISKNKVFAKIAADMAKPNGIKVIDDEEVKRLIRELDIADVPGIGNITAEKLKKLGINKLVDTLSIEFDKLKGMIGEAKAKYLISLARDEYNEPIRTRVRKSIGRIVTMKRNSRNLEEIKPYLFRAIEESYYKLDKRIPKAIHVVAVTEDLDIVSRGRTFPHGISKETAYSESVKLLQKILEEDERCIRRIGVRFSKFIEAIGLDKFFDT

Dpo4 Y274W = target: T2, Dpo4 Y274W (Sulfolobus solfataricus, UniProt Q97W02 1-352, C31S;Y274W); assay: steady-state Trp fluorescence
T2 sequence: T1 sequence with W108Y, Y274W, C329K

Dpo4 Y108W = target: T3, Dpo4 Y108W (Sulfolobus solfataricus, UniProt Q97W02 1-352, C31S;Y108W); assay: steady-state Trp fluorescence
T3 sequence: T1 sequence with C329K

Measured: binding result

B1: DNAOH 21/30-mer (dsDNA)
DNA 1: CGAGCCGTCGCATCCTACCGC
DNA 2: GATGCTGCAGCGGTAGGATGCGACGGCTCG
binds: Dpo4 Y108W-K329C-CPM | Dpo4 Y274W | Dpo4 Y108W
